This assay concerns the target T1, oncostatin M receptor-beta (OSMRβ) (human, UniProt Q99650 28-979).
T1 sequence (looked up): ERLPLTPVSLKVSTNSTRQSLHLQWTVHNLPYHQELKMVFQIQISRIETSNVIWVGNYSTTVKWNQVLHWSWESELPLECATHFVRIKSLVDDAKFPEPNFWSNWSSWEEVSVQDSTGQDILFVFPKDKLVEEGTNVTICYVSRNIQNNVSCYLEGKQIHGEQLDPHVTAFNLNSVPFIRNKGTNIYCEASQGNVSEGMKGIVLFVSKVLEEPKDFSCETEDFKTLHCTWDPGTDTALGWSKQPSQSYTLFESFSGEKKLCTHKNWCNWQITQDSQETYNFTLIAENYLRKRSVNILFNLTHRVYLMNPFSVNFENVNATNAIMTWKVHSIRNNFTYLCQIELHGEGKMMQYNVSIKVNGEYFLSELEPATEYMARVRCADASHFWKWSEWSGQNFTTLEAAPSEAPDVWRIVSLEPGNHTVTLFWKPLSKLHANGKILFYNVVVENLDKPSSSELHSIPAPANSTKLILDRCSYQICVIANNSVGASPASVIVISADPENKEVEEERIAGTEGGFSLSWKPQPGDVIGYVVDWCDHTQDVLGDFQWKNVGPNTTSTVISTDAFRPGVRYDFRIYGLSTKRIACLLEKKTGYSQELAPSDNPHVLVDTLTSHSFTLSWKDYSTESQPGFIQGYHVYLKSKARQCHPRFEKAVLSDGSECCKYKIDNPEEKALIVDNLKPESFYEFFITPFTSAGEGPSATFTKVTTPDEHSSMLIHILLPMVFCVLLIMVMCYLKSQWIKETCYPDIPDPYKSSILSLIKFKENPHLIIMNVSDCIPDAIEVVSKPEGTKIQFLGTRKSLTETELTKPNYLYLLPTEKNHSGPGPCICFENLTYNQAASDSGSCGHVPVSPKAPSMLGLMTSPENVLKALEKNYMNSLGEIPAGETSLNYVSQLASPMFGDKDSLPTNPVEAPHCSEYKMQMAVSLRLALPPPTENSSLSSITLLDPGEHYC
As to the kind of experiment: cell-based or functional assay.

B1: Vixarelimab (antibody, human IgG4 S228P, lambda, N297Q, V domains shown)
VH: QVQLVQSGAEVKKPGASVKVSCKASGYTFTSYEINWVRQATGQGLEWMGWMNPNSGYTGYAQKFQGRVTMTRDTSISTAYMEMSSLRSEDTAVYYCARDIVAANTDYYFYYGMDVWGQGTTVTVSS
VL: QSVLTQPPSASGTPGQRVTISCSGSNSNIGSNTVNWYHQLPGTAPKLLIYNINKRPSGVPDRFSGSKSGSSASLAISGLQSEDEADYYCSTWDDSLDGVVFGGGTKLTVLG
With B1, the “Mean of IC50, inhibition of OSM-induced pSTAT3; IBD-derived intestinal fibroblasts, [OSM] 1 ng/mL (standard deviation 0.05)” value stood at 0.14 nM; the “Mean of IC50, inhibition of OSM-induced pSTAT3; IBD-derived intestinal fibroblasts, [OSM] 10 ng/mL (standard deviation 0.36)” value worked out at 1.15 nM; the “Mean of IC50, inhibition of OSM-induced pSTAT3; normal keratinocytes, [OSM] 10 ng/mL (standard deviation 0.18)” value is 0.36 nM.

Values taken from patent publication US20250101117A1 (Genentech, published 2025).
